Data taken from the DeepSol protein solubility set.

experiment: soluble on expression in E. coli; label from the status in PepcDB or PDB records

Soluble on expression in E. coli, soluble:
RKRRRGYDVDEQGKIVRGKGTVSSNYDNYVFDIWKQYYPQPVEIKHDHVLDHYDIHEELGTGAFGVVHRVTERATGNNFAAKFVMTPHESDKETVRKEIQTMSVLRHPTLVNLHDAFEDDNEMVMIYEFMSGGELFEKVADEHNKMSEDEAVEYMRQVCKGLCHMHENNYVHLDLKPENIMFTTKRSNELKLIDFGLTAHLDPKQSVKVTTGTAEFAAPEVAEGKPVGYYTDMWSVGVLSYILLSGLSPFGGENDDETLRNVKSCDWNMDDSAFSGISEDGKDFIRKLLLADPNTRMTIHQALEHPWLTPGNAPGRDSQIPSSRYTKIRDSIKTKYDAWPEPLPPLGRISNYSSLRKHRPQEYSIRDAFWDRSEAQPRFIVKPYGTEVGEGQSANFYCRVIASSPPVVTWHKDDRELKQSVKYMKRYNGNDYGLTINRVKGDDKGEYTVRAKNSYGTKEEIVFLNVTRHSEPLKFEPLEPMKKAPSPPRVE
SATSVLCCLRCCRDGGTGHIPLKEMPAVQLDTQHMGIWGIGVATQKVNLNQIPLGRDMHSLVMRNDGALYHNNEEKNRLPANSLPQEGDVVGITYDHVELNVYLNGKNMHCPASGIRGTVYPVVYDDDSAILDCQFSEFYHTPPPGFEKILFEQQIF
GAMAATAAEAVASGSGEPREEAGALGPAWDESQLRSYSFPTRPIPRLSQSDPRAEELIENEEPVVLTDTNLVYPALKWDLEYLQENIGNGDFSVYSASTHKFLYYDEKKMANFQNFKPRSNREEMKFHEFVEKLQDIQQRGGEERLYLQQTLNDTVGRKIVMDFLGFNWNWINKQQGKRGWGQLTSNLLLIGMEGNVTPAHYDEQQNFFAQIKGYKRCILFPPDQFECLYPYPVHHPCDRQSQVDFDNPDYERFPNFQNVVGYETVVGPGDVLYIPMYWWHHIESLLNGGITITVNFWYKGAPTPKRIEYPLKAHQKVAIMRNIEKMLGEALGNPQEVGPLLNTMIKGRYN
MSKVVPIASLTPYQSKWTICARVTNKSQIRTWSNSRGEGKLFSLELVDESGEIRATAFNEQVDKFFPLIEVNKVYYFSKGTLKIANKQFTAVKNDYEMTFNNETSVMPCEDDHHLPTVQFDFTGIDDLENKSKDSLVDIIGICKSYEDATKITVRSNNREVAKRNIYLMDTSGKVVTATLWGEDADKFDGSRQPVLAIKGARVSDFGGRSLSVLSSSTIIANPDIPEAYKLRGWFDAEGQALDGVSISDLKS

Soluble on expression in E. coli, not soluble:
MQKISRIVNSIYLTAELTAGTANTYDLIAEFFNFGPDSYNKLQSIDMKELKSGLEEIVSIHSELTYTDIDKRAEQRFRHLIEIRKEVEGVGSLEDIKDAQANYKSELETFKKTTFDTAGIEEFQNAVKNFIGAAADVEKYSNLEKLTDVDIMYARPLIYTLKTSIENLAKSYSSINSFDDFEKIRNPSEFVDPISKIVSGYKKYNASRTTIERDGNFAKGMQSNANNMKRLENVASVFEGLGSFVKNLQAVIDVRQTMHLPKYTVGFIDGTFDPKKVVTDLEDDWVQSVTHEMDLNRTINLLLPIGDHVSAIEASFLSSSSKQSKFFTGFKSSETEVSPVDGSIDSIISTSKKVSECIIAPLTYLESIKEVEILLQAIESLKKTVDTLVGTKELVNWVKTNDVVLKEVEALCSYTDEEKKDFESSVPIKLKGLKSSENYTSLIKTLNQSSLFADAVFSEKLSTTGQETAYILGGLQSLDAFYNSATDHIAFFDCLLNVAYYDLIPLAIDTLNKVRKMDVQPIRDGIDVVNDLFNVSNQLDELKTKLRELNDPNFSIAETPLSNPSLHTTTIGLSVRGVIRMKDEIDHRSDFDVVIENAEMVDQEMKNTGKKAINMVEFGSRLKKLKSELEGWKSNITVGGAHRIRRSTPSLADYAHIFQNALKVGGVDDDLKKLMDAVKDFEKTGKDAATKVKLKEVIASLNSLNSIGLQLSSFATPFTAIGQSFSALDAFFVSNGKIITTPAPIVSSSDIRSPTIEDATALVSFLYKLLNDFMKEEGDKGATNNGKLPLKAMYQFCKSILRIANLAPNNAIVESEKYSEQDRYSDVLCGMDNRILIDEDVCRRCYFKDQYINANYLELPNGNRMILTQAPMSRTEHFKPEKDKKRKNLYSLSDEEEEISYLVQTVDKFYQTIVQTGTEVVAMLCDFNEEGVEKCSSYFPLEKDGKQKFHNVNVCTTNVQHPSADVVLRTLVITSYLGEKKKTHTVKHYSYKGWIEKNAPELPREILNIFRVARNSKSLVVHCSNGIGRSAAFVSWELCYHFVPVNFEICDFSVAEFVYQKMIRSLDTTSTVNLDFLSLLTELRHSRPRAIHTPMQLAFSIMMVLDFVMNNFPKGEMEAKYQEIRKSYLHARQMMHKDLEFDGSDGKTVDIALDEDGHGIPEKKGKKKTNKKAAQQASVKKDEKSKKKSKKDSKKGSKMDMKTAEEGMKSLQKKAA
MKKSSLNNLEYLDISQEVNALQVPNTPFLSYLLGAGKVEAAKSTEIKWREYGMNNDDSSAQLEGGEYADAESDRTWFNNYTEIFRKSTSVSGTLDAINVDGVGNELNSQVALRATEMKIDLNRKLIVGVKADESGSKGRQMNGILNLISSTNKVETAAAGAVTRKDIDALFKTMFQKGYMGEKLCLVAPDMQELMIDQLDEKSTKIVQFGDKLTFGLQLGNIVSNYGSGIALIEPNLPNGTIAAIDTNYVKLRPLREWRAEELAKTTDSRRIGLVGEYSIEYKASNSGAILNLKA
MGSDKIHHHHHHMDSLLFGISGLPNRNSNKKFTYKTGIEYLREIGLDAMELPFVRSVNITDKNKNEVLDTKLKNDFYLSAHGSYFINLNADEEEKIEKSLERIIKGAEGLKKVQGKSLIFHPGFYLKDSKEETFETIKENLLRLPDLGVDYRLETTGKGTQFGSLEENVALCKAVDTCKLCIDFSHIHARYNGSLKSYDDFARILNYVGNELGDEGLNDMHIHLSGINYTAKGERNHLPFEESDFNYKDCLKAFRDFDIKGCVICESPVLEHDALLLKNYYETL
MGSDKIHHHHHHMSTKHAIAAAHFLENKENEAWHDHTLWMVRTKRDKMSHSLPEWERLRELASEIKLYSNSHLDTLLEEFEKNAIANGAIVHWAKDAEEHNEIVLRILRQHDARNLIKSKSMLTEECHMNEFLMSKGIDVVESDLGERILQLMHLAPSHIVMPAIHIKREQISEMMEREMGTEKGNIDPTYLTHAARKNLREKFLHADVAMTGANFAVASTGEIVVCTNEGNADMGTSFPKVHIATMGMEKIVPNLEALGVFTRLLARSGTGQPITSYTSHYRRPPEGQEFHIIIVDNGRSDILAKPDHIRTLNCIRCGECMNTCPVYRRSGGYSYTYFIPGPIGINLGMLRNPEEYSDNVSACSLCLSCSNVCPVKIDLGEQIYRWRQDLDKIGKASKEKKVMSFGMKFLMERSGLFNTALKFAPVVNHLPRFMVYNGLNAWGKGRELPAFAKESFNDMWKNNKVR
MGSDKIHHHHHHMRKSRDANPFKAMPNILYPDELMDKAYNRSEKIAGELRTTTRGLSTPKSKIIEDNKIRTTASVISDNLLKIVEKTPSIDNLDPFYREILEIMVGSDEFKKSLAAVQWASEIVKKLGTQYSRKVKKAPSPQATSIVRKEFIGRVSSVLKQIYPNMAFLGVARNKLKNIPTVKNLPSVVIAGYPNVGKSTLLRTLTDAEPEVNSYPFTTKGLNIGYTEEGIQIIDTPGVLDRPIYERNDIELHAVVAINYLSDMILFVIDPTEFCGFTMEEQFNLLQEIRKTFNVPILVALTKMDVDEIEGLDKLEEDLGEYEVLKVSSFKKEGIADLRERLLDILDEQGLMGLLEE
MGSDKIHHHHHHMILKTNLFGHTYQFKSITDVLAKANEEKSGDRLAGVAAESAEERVAAKVVLSKMTLGDLRNNPVVPYETDEVTRIIQDQVNDRIHDSIKNWTVEELREWILDHKTTDADIKRVARGLTSEIIAAVTKLMSNLDLIYGAKKIRVIAHANTTIGLPGTFSARLQPNHPTDDPDGILASLMEGLTYGIGDAVIGLNPVDDSTDSVVRLLNKFEEFRSKWDVPTQTCVLAHVKTQMEAMRRGAPTGLVFQSIAGSEKGNTAFGFDGATIEEARQLALQSGAATGPNVMYFETGQGSELSSDAHFGVDQVTMEARCYGFAKKFDPFLVNTVVGFIGPEYLYDSKQVIRAGLEDHFMGKLTGISMGCDVCYTNHMKADQNDVENLSVLLTAAGCNFIMGIPHGDDVMLNYQTTGYHETATLRELFGLKPIKEFDQWMEKMGFSENGKLTSRAGDASIFLK
